Test [1] deals with T1, human ART1 expressed on HEK293 cells (human, UniProt P52961 23-295).
T1 sequence: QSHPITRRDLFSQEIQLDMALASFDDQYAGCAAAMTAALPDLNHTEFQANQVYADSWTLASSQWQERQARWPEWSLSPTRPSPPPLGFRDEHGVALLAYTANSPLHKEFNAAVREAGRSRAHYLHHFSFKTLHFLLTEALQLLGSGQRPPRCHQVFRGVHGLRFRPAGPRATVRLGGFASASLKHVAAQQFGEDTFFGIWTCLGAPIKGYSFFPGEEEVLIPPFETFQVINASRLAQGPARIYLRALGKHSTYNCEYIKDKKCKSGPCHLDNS
Briefly: cell-based or functional assay.

The target in test [2] is T2, purified recombinant human ART1 (human, UniProt P52961 23-295).
T2 construct: Produced in HEK293 cells and purified; also called huART1; human ADP-ribosyltransferase 1
T2 sequence: T1 sequence
Briefly: sensorgrams R [RU] against time [s] with fitted lines, panel '14G01 Binding huART1', huART1 at 100.0, 25.00, 12.50, 6.250, 3.125, 1.563 nM; format not told for this figure (FIG. 12 legend: SPR, antibody captured on anti-mouse Fc, 1:1 fit).

Test [3] has as its target T2, purified recombinant human ART1. The test is described as follows: SPR; antibody captured on anti-mouse Fc surface, ART1 as analyte, 1:1 kinetic fit. The method, then:
(§1) FIGS. 12A-12D. […] Sensorgrams are double-reference subtracted using a control surface and blank injections. Affinity constants were determined by kinetic fit using a 1:1 binding model.
Background: In SPR one partner is held on a chip, and binding of the other changes the refractive index at the surface.

For test [4], the target named is T3, purified recombinant mouse ART1 (mouse, UniProt Q60935 23-290).
T3 construct: Produced in HEK293 cells and purified; also called moART1; murine ART1
T3 sequence: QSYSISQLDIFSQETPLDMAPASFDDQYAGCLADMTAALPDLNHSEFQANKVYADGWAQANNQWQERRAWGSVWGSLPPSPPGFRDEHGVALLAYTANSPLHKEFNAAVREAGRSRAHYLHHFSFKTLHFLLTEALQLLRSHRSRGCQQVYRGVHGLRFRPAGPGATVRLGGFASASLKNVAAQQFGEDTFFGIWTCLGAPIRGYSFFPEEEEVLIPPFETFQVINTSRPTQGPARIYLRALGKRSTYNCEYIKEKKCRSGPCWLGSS
The description is as above. The procedure: as §1

Test [5] addresses T3, purified recombinant mouse ART1. Briefly: sensorgrams R [RU] against time [s] with fitted lines, panel '14G01 Binding moART1', moART1 at 200.0, 100.0, 25.00, 12.50, 3.125, 1.563 nM; format not told for this figure (FIG. 12 legend: SPR, antibody captured on anti-mouse Fc, 1:1 fit).
In test [6] the target is T1, human ART1 expressed on HEK293 cells. Briefly: panel 'ART1 Ab binding' on HEK293 cells transfected with ART1; y axis GMFI, Ratio to 2nd Only, x axis Log[Ab], nM (the legend calls it a NAD-Glo assay); the curve rises from about 3.3 to a plateau of about 13.

B1: 14G01 monoclonal antibody (antibody, V domains shown)
VH: QVQLQESGPGLVKPSETLSLTCTVSGGSISSYYWSWIRQPAGKGLEWIGRISTSGFTNYNPSLKSRVTMSVDSSKNQFSLKLSSLTAADTAVYYCARDGWGRVFDIWGLGTMVTVSS
VL: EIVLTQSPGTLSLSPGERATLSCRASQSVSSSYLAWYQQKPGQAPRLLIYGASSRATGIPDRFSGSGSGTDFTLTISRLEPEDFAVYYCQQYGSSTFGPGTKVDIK
notes: Purified from hybridoma supernatant; VH and VK are human; The antibody was captured on an anti-mouse Fc surface in SPR
In general, Kd refers to the free concentration of one partner at which half of the binding sites on the other are occupied at equilibrium, for simple one-to-one binding. On to B1, for which, in test [1], the “IC50 Cell Surface ADP-Ribosylation” value amounted to 28 nM. In addition, the dissociation constant Kd amounted to 3.8 nM in test [2], 4 nM in test [3], 6 nM in test [4] and 6.2 nM in test [5].

B2: 22C12 monoclonal antibody (parental, mouse light chain) (antibody, V domains shown)
VH: QVTLKESGPVLVKPTETLTLTCTVSGFSLSNARMGVSWIRQPPGKALEWLAHIFSNDEKSYSTSLKSRLTISKDTSKSQVVLTMTNMDPVDTATYYCARIYGGDSWGYFDNWGQGTLVTVSS
VL: QIVLTQSPAIMSASLGEKVTMTCSASSSVSYMHWYQQKSGTSPKRWIYDTSKLASGVPARFSGSGSGTSYSLTISSMEAGDAATYYCQQWSSNPPTFGAGTKLELK
notes: Purified from hybridoma supernatant (AlivaMab Mouse); VH is human and VK is mouse; The antibody was captured on an anti-mouse Fc surface in SPR; also called 22C12 (mLC); mLC22C12
One may read the EC50 as the midpoint of the concentration-response curve. On to B2, for which, in test [1], the “IC50 Cell Surface ADP-Ribosylation” value was 14 nM. Also, the Kd is 0.161 nM in test [3] and 0.439 nM in test [4]. Also, the EC50 in test [6] was found to be 0.75 nM.

The values above are taken from patent US20250382381A1 (CORNELL UNIVERSITY, published 2025).
